Common to all, as to test: ELISA
On the technique in general: ELISA stands for enzyme-linked immunosorbent assay.

Assay [1] deals with SARS-CoV-2 B.1.1.7 spike protein (SARS-CoV-2 B.1.1.7 (Alpha), UniProt P0DTC2 13-1213).
Assay [2] deals with T1, SARS-CoV-2 P.1 spike protein (SARS-CoV-2 P.1 (Gamma), UniProt P0DTC2 13-1213).
For assay [3], the target named is T1, SARS-CoV-2 P.1 spike protein. The source holds these as a separate data set.

B1: 1-L10-A (antibody, V domains shown)
VH: EVKLEESGGGLVQPGGSMKLSCVASGFTFNNYWMNWVRQSPEKGLEWVAQMRLKSDNYATHYAESVKGRFTISRDDSKSSVYLQMNNLRAEDTGIYYCIEGYWTYWGQGTLVTVSA
VL: QIVLTQSPAIMSASLGERVTMTCTASSSVSSSYLHWYQQKPGSSPKLWIYSTSNLASGVPARFSGNGSGTSYSLTISSMEAEDAATYYCLQYHRSPPYTFGGGTKLEIK
For orientation: IC50 means the concentration needed to halve the response being measured. In the case of B1, the IC50 is 7.82 nM in assay [1] and 11.5 nM in assay [2].

B2: 8-H5-A (antibody, V domains shown)
VH: QVTLKESGPGILQSSQTLSLTCSLSGFSLSTSGMGVSWVRQPSGKGLEWLAHIYWDDDKRYTPSLKSRLTISTDSSRKQVFLKITSVDTADTATYYCARRDLHDYDGWFAYWGQGTLVTVSA
VL: DIVMTQSQKFMSTAVGDRVSVTCKASQNVGTNVAWYQQKPGQSPKALIYSASFRYSGVPDRFSGSGSGTDFTLTISNVQSEDLAEYFCQQYNSYPLTFGSGTKLEIK
Turning to B2, the IC50 was 15.4 nM in assay [1] and 30.5 nM in assay [2].

B3: 2-H7-A (antibody, V domains shown)
VH: QAYLQQSGAELVRPGASVKMSCKASGYTFTGYTMHWVKQTPRQGLEWIGAIYPENGDTSYNQKFKGKATLTVDKSSSTAYMQLSSLTSEDSAVYFCARDGYDVLYGMDYWGQGTSVTVSS
VL: DIVLTQSPASLAVSLGQRATISCRASKSVSTSGYSYMHWYQQKPGQPPKLLIYLASNLESGVPARFSGSGSGTDFTLNIHPVEEEDAATYYCQHSRELPWTFGGGTKLDIK
With B3, the results for the IC50 in assay [1] and in assay [2] were 9.88 nM and 35.6 nM, respectively.

B4: 2-G20-A (antibody, V domains shown)
VH: EVQLQQSGPELVKPGASVKMSCKASGYTFPSYVLHWVKQKPGQGLEWIGYIYPYNDGTNYNEKFKGKATLTSDKSSSTAYMELSSLTSEDSAVYYCARGDYGDSAWFPYWGQGTLVTVSA
VL: DIVLTQSPASLAVSLGQRATISCRASKSVSTSGYSYMHWYQQKPGQPPKLLIYLASNLKSGVPARFSGGGSGTDFTLNIHPVEEEDAATYYCQLSRELPWTFGGGTKLEIK
With B4, the IC50 worked out at 19.2 nM in assay [1] and 18.9 nM in assay [2].

B5: 2-O12-A (antibody, V domains shown)
VH: EVQLQQSGPELVKPGASVKISCKASGYTFTDYYMNWVKQSHGKSLEWIGDINSNNGGTTYDQKFKGKATLTVDRSSSTAYMELRSLTSEDSAVYYCARRGDGHFGGFTYWGQGTLVTVSA
VL: not shown
Consider B5, for which 87.6 nM corresponded to half-maximal inhibition in assay [1] (IC50).

B6: 10-J24-A (antibody, V domains shown)
VH: EVQLVESGGGLVKPGGSLKLSCAASGFTFSSYAMSWVRQNPAKRLEWVATISGGGGFTYYPDSVKGRFTISRDNAKNTLYLQMNSLRSEDTAMYYCARDEDGKHDYFDYWGQGTTLTVSS
VL: DIVMTQSHKFMSTSVGDRVSITCKASQDVGTAVAWYQQKPGQSPKLLIYWASTRHTGVPDRFTGSGSGTDFTLTISNVQSEDLADYFCQQYASYPLTFGGGTKLVIK
As a reminder, the EC50 is the concentration needed to bring the measured effect to its halfway point. Low values mean a more potent agent, high ones a less potent agent. Consider B6, for which the EC50 in assay [3] was found to be 16.1 nM.

B7: 4-C22-A (antibody, V domains shown)
VH: EVQLVESGGDLVKPGGSLKLSCAASGFTFSSFGMSWVRQTPDKRLEWVATISSGGGFTYYPDSVEGRFTISRDNAKNTLYLQMSSLKSEDTAMYYCARRLYDYDWFAYWGQGTLVTVSA
VL: DIVMTQSHKIMSTSVGDRVSITCKASQDVVTAVAWYQKKPGQSPKLLIHWASTRHTGVPDRFTGSGSGTDFTLTISNVQSEDLADYFCQQYSSYPLTFGAGTKLELK
In assay [3], B7 registered an EC50 of 1.44 nM.

B8: 6-C19-A (antibody, V domains shown)
VH: QIQLVQSGPELKKPGETVKISCKASGNTFTTAGMQWVQKMPGKGFKWIGWINTHSGEPKYAEDFKGRFAFSLETSASTAYLQISNLKNEDTATYFCARYGDYYYFDCWGQGTTLTVSS
VL: DIQMTQSPASLSASVGETVTITCRASGNIHNYLAWYQQKQGKSPQLLVYNAKTLADGVPSRFSGSGSGTQYSLKINSLQPEDFGSFYCQHFWTTPWSFGGGTKLEIK
B8: the EC50 in assay [3] is 0.62 nM.

B9: 9-L13-A (antibody, V domains shown)
VH: QVQLKESGPGLVAPSQSLSITCTVSGFSLTSYAISWVRQPPGKGLEWLGLIWTGGGTNYNSALKSRLSISKDNSKSQIFLKMNSLQTDDTARYYCARGPPLIYYGDLYYFDYWGQGTTLTVSS
VL: DIQMTQSPSSLSASLGGKVTITCKASQDINKYIAWYQHKPGKGPRLLIHYTSTLQPGIPSRFSGSGSGRDYSFSISNLEPEDIATYYCLQYDNLWTFGGGTKLEIK
In the case of B9, the IC50 in assay [1] was 65.3 nM.

B10: 4-N22-A (antibody, V domains shown)
VH: QVQLQQPGTELVKPGASVKLSCKASGYTFTNYWMYWVKQRPGQGLDWIGNINPSNGGTNYNEKFKSKATLTVDKSSSTAYMQLSSLTSEDSAVYYCARETGNYWGQGTTLTVSS
VL: DILMTQSPSSMSVSLGDTVSISCHASQGISSNIGWLQQKPGKSFKGLIYHGTNLEDGVPSRFSGSGSGADYSLTISSLESEDFADYYCVQYAQFPYTFGGGTKLEIK
For the molecule B10, the IC50 was determined as 1.51 nM in assay [1] and 17.2 nM in assay [2].

B11: 4-M3-A (antibody, V domains shown)
VH: EVQLQQSGPELVKPGDSVKISCKASGYSFTGYFMNWVMQSHGKSLEWIGRINPNNGETFYNQKFKGKATLTVDKSSDTAHMELRSLTSEDSAVYYCARGGTGTGWGQGTTLTVSS
VL: DILMTQSPSSMSVSLGDTVSITCHASQGISSNIGWLQQKPGKSFKGLIYYGTNLEDGVPSRFSGSGSGADYSLTISSLESEDLADYYCIQYAQFPYTFGGGTKLEIK
On to B11, for which the results for the IC50 in assay [1] and in assay [2] were 4.98 nM and 13.5 nM, respectively.

B12: 6-O12-A (antibody, V domains shown)
VH: QVQLQQPGTELVKPGASVKLSCKASGYTFTSYWMHWVKQRPGQGLEWIGNINPSNGGTNYNEKFRSKATLTVDKSSSTAYMQLSSLTSEDSAVYYCARLGWFLPLGSWGQGTTLTVSS
VL: QIVLTQSPAIMSASLGEVITLTCSASSSVSYMHWYQQKSGTSPKLLIYSTSNLASGVPSRFSGSGSGTFYSLTISSVEAEDAADYYCHQWSGYMYTFGGGTKLEIK
For the molecule B12, the figures for the IC50 in assay [1] and in assay [2] were 7.05 nM and 8.01 nM, respectively.

B13: 4-L4-A (antibody, V domains shown)
VH: QAYLQQSGAELVRPGASVKMSCKASGYTFTSYTVHWVKQTPRQGLEWIGGIYPGNVDTSYNQNFKGKATLTVDKSSSTAYMQLSSLTSEDSAVYFCARDGYYAMDYWGQGTSVTVSS
VL: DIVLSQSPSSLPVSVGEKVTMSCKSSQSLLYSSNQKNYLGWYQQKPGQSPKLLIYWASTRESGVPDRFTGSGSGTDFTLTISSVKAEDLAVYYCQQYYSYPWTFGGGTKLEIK
B13: the values for the IC50 in assay [1] and in assay [2] were 31.6 nM and 28.2 nM, respectively.
